Patent US20100056764A1 (Novo Nordisk, published 2010)
“And” between values parts separate entries of the source, which are not always exact repeats. Equal entries are not always repeated. Where two headings read alike, the source gives them in different places.

Assays:
[1] = biological target: T1, human NKG2D (hNKG2D) on the cell surface (human, UniProt P26718 1-216); experiment: cell-based or functional assay
T1 chain: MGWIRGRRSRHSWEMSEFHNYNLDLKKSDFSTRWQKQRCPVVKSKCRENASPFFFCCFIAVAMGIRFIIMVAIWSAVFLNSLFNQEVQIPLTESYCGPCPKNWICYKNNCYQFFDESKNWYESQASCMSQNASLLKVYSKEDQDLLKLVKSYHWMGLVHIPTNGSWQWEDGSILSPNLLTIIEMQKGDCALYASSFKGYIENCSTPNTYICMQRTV

[2] = biological target: T2, cynomolgous monkey NKG2D on NK, CD8+ T and gamma-delta T cells (cynomolgous monkey (Macaca fascicularis), UniProt P61252 1-216); experiment: flow cytometry, NK cells; reference is 21F2 on human cells
T2 construct: whole, on cells; Target on cynomolgous PBMC and whole blood cells; also called cynomologous NKG2D; cyno NKG2D
T2 sequence (looked up): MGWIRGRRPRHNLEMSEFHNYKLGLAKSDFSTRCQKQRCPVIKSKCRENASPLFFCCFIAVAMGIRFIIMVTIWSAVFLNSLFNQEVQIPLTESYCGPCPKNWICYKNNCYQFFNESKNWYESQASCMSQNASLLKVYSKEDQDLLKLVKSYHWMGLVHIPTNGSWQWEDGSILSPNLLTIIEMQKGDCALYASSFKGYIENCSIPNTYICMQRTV
Method: (§1) Briefly, incubation with antibody was performed at 4° C. for 30 min followed by washing, then directly labelled secondary anti-hIgG4 antibody was added and incubated for 30 min at 4° C. along with antibodies specific for the various cell populations of interest, CD8, CD4, NK and γδ-T cells, then the cells were washed twice in PBS with 2% FCS and the red blood cell lysed. The cells were then analyzed by flow cytometry and binding to the different cell populations assessed.

[3] = biological target: T2, cynomolgous monkey NKG2D on NK, CD8+ T …; experiment: flow cytometry, CD8 T cells; reference is 21F2 on human cells
Method: as §1

[4] = biological target: T1, human NKG2D (hNKG2D) on the cell surface; experiment: flow cytometry, human NK cells in PBMC, anti-human IgG4 detection
Method: as §1

[5] = biological target: T1, human NKG2D (hNKG2D) on the cell surface; experiment: flow cytometry, dose-response on NKG2D- and DAP10-expressing BaF/3 cells
[6] = biological target: T1, human NKG2D (hNKG2D) on the cell surface; experiment: flow cytometry, human CD8 T cells in PBMC, anti-human IgG4 detection
Method: as §1

[7] = biological target: T2, cynomolgous monkey NKG2D on NK, CD8+ T …; experiment: flow cytometry, cynomolgous NK cells in PBMC, anti-human IgG4 detection
Method: as §1

[8] = biological target: T2, cynomolgous monkey NKG2D on NK, CD8+ T …; experiment: flow cytometry, cynomolgous CD8 T cells in PBMC, anti-human IgG4 detection
Method: as §1

[9] = biological target: T2, cynomolgous monkey NKG2D on NK, CD8+ T …; experiment: flow cytometry, gamma-delta T cells (Gd); reference is 21F2 on human cells
Method: as §1

[10] = biological target: T1, human NKG2D (hNKG2D) on the cell surface; experiment: flow cytometry, human gamma-delta T cells (Gd) in PBMC, anti-human IgG4 detection
Method: as §1

[11] = biological target: T2, cynomolgous monkey NKG2D on NK, CD8+ T …; experiment: flow cytometry, cynomolgous gamma-delta T cells (Gd) in PBMC, anti-human IgG4 detection
Method: as §1

[12] = biological target: T3, recombinant NKG2D-Fc protein (R&D Systems), immobilized on a Biacore CM5 chip (human, UniProt P26718 78-216); experiment: SPR (Biacore), NKG2D-Fc immobilized on CM5 chip at 400 RU, antibody in solution, Langmuir fit
T3 construct: also called NKG2D-hFc; hFc-NKG2D; not shown: Fc portion of the purchased fusion protein
T3 sequence: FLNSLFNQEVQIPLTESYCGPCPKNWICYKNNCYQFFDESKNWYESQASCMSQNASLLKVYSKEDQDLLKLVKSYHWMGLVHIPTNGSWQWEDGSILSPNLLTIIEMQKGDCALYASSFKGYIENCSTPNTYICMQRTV
Method: Surface plasmon resonance measurements were performed on a Biacore 1000 upgrade apparatus (Biacore GE Healthcare; Biacore Upgrade CA0396) at 25° C. In all Biacore experiments HBS-EP buffer (Biacore GE Healthcare; BR-1001-88) served as running buffer and sensorgrams were analyzed with Biaevaluation 4.1 software.
Protein immobilisation. […] Recombinant NKG2D-Fc proteins were immobilized covalently to carboxyl groups in the dextran layer on a Sensor Chip CM5 (Biacore GE Healthcare; BR-1000-14). The sensor chip surface was activated with EDC/NHS (N-ethyl-N′-(3-dimethylaminopropyl)carbodiimidehydrochloride and N-hydroxysuccinimide (Biacore GE Healthcare; BR-1000-50)). […] Deactivation of the remaining activated groups was performed using 100 mM ethanolamine pH 8 (Biacore GE Healthcare; BR-1000-50).
[…] The resulting sensorgrams were analysed by global fitting using the Langmuir model. The dissociation constant (KD) was calculated as KD=kd/ka.

[13] = biological target: T1, human NKG2D (hNKG2D) on the cell surface; experiment: flow cytometry, NKG2D/DAP10 BaF/3 cells pre-incubated with antibody, then 1 µg MICA-mFc (competitor)
Method: (§2) Flow cytometry assays—MICA blockade. […] The cells were then analysed on a B&D FACSArray flow cytometer. The degree of reduction of MICA binding by preincubation was analysed as MFI (mean fluorescence intensity) of binding with pre-incubation in % of binding of MICA without preincubation.

[14] = biological target: T1, human NKG2D (hNKG2D) on the cell surface; experiment: as above
Method: as §2

[15] = biological target: T1, human NKG2D (hNKG2D) on the cell surface; experiment: flow cytometry blocking assay on NKG2D/DAP10-expressing BaF/3 cells: pre-incubation with the antibody, then 1 µg MICA-mFc; y axis % remaining MICA-Fc binding
Method: as §2

Binder | EC50 (µg/ml), inhibition of NK cell killing of ULPB3-expressing target cells (51Cr release) [1] | relative EC50, cynomolgous to human cells (%) [2] | relative EC50, cynomolgous to human cells (%) [3] | EC50 [4] | EC50 [5] | EC50 [6] | EC50 [7] | EC50 [8] | relative EC50, cynomolgous to human cells (%) [9] | EC50 [10] | EC50 [11] | Kd [12] | koff [12] | kon [12] | IC50 [13] | Full blockade of 1 µg MICA-Fc (antibody concentration) [14] | IC50 [14] | IC50 (read off the curve) [15]
21F2, fully human anti-hNKG2D monoclonal antibody, recombinantly expressed as IgG4 isotype (antibody, V domains shown, also called 21F2 IgG4; 21F2 (IgG4)) VH: EVQLVQSGAEVKEPGESLKISCKNSGYSFTNYWVGWVRQMPGKGLEWMGIIYPGDSDTRYSPSFQGQVTISADKSINTAYLQWSSLKASDTAMYYCGRLTMFRGIIIGYFDYWGQGTLVTVSS VL: EIVLTQSPATLSLSPGERATLSCRASQSVSSYLAWYQQKPGQAPRLLIYDASNRATGIPARFSGSGSGTDFTLTISSLEPEDFAVYYCQQRSNWPWTFGQGTKVEIKR | 0.021 µg/mL | 66.7% | 71.9% | 0.0712 µg/mL | 0.033 µg/mL and 0.023 nM | 0.0605 µg/mL | 0.0475 µg/mL | 0.0435 µg/mL | 81.1% | 0.0572 µg/mL | 0.0464 µg/mL | 77.9 pM | 0.000144 s⁻¹ | 1.85e+06 M⁻¹ s⁻¹ | 4.8 pM | 0.16 µg/mL | 0.0063 µg/mL | ~4 pM
MS, fully human anti-hNKG2D monoclonal antibody, recombinantly expressed as IgG4 isotype (antibody, V domains shown, also called MS IgG4; MS (IgG4)) VH: QVHLQESGPGLVKPSETLSLTCTVSDDSISSYYWSWIRQPPGKGLEWIGHISYSGSANYNPSLKSRVTISVDTSKNQFSLKLSSVTAADTAVYYCANWDDAFNIWGQGTMVTVSS VL: not shown | – | – | – | – | – | – | – | – | – | – | – | – | – | – | – | – | – | ~2 pM
